{
  "source": "patent US20210171652A1",
  "about": "(University of Pennsylvania, published 2021)",
  "binders": {"B1": {"name": "KP3-17 (anti-Rh17), as used in Example 8 (antibody, V domains shown)", "VH": "EVQLLESGPGLLKPSETLSLTCAVSGAPISNYWWSWIRQSPGKGLEWIGEIDGSIYTTYYNPSLKSRVAISKDTSKNRLSLKLTSVTAADTAVYYCAREGQNPLVPTYGSTGFGLDFWGHGLAVTVSS", "VL": "AAELTQSPSSLSASVGDRVTITCQASQGISSWLAWYQQKPGKAPKLLIYKASSLQSGVPSRFSGSGSGTDFTLTISSLQSEDFATYYCQQYSSSPRTFGQGTKVEIK"}},
  "key": {"[1]": {"molecular_target": "T1, human RhCE protein (RHCE; Rh17/Hr0 epitope) on human red blood cells (human, UniProt P18577 2-417)", "T1 construct": "Target on intact human RBCs of donors", "T1 chain": "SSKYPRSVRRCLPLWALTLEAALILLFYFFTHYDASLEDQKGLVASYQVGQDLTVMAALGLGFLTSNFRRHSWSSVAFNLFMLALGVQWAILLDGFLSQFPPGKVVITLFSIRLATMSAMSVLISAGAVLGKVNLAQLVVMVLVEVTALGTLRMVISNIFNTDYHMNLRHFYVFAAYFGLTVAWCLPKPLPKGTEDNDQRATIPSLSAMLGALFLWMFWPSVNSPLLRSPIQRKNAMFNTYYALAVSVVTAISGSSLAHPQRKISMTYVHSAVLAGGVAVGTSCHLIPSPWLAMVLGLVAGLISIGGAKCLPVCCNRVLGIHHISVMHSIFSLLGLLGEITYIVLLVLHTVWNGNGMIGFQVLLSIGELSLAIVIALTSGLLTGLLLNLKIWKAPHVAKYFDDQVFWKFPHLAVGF", "test": "dissociation of 125I-labelled protein from saturated human RBCs", "protocol": "(§1) Recombinant proteins were radiolabeled with Na¹²⁵I (Perkin Elmer, Exton, Pa.) using pre-formulated iodination reagent (Pierce Iodination Reagent, Thermo Fisher Scientific, Carlsbad, Calif.) per the manufacturer's protocol. Radiochemical purity was verified by instant thin layer chromatography on silica and was typically >95%. Radiolabeled proteins were added to human RBCs at 0.02% hematocrit in PBS with 2% human AB serum. Binding was allowed to reach equilibrium over 4 hours at 37 degrees C. After binding, cell suspensions were rapidly washed at least four times with cold PBS. The resulting cell pellet was counted using a Perkin Elmer Wizard2 gamma counting system. Dissociation of the fusion proteins was assessed using RBCs saturated with radiolabeled proteins, washing unbound ligands, and placing in dilute suspensions prior to measurement of bound ligand at specified time points. Similar binding experiments were performed with fluorescently-labeled recombinant proteins and cells were analyzed by flow cytometry (Accuri C6, BD Biosciences, San Jose, Calif.). Fluorescently labeled proteins were produced by reaction with amine-reactive derivatives of fluorescent dyes AlexaFlour488 and AlexaFlour647 (typically 10- to 20-fold excess at pH 8) and purified using 10,000 MWCO centrifugal filter devices (EMD Milipore, Billerica, Mass.)."}, "[2]": {"molecular_target": "T1, human RhCE protein (RHCE; Rh17/Hr0 …)", "test": "direct binding of 125I-labelled protein to human RBCs, 4 h at 37 C", "protocol": "as §1"}, "[3]": {"molecular_target": "T2, Band 3 / glycophorin A (Wright b, Wrb epitope) on human red blood cells (human, UniProt P02724 20-150)", "T2 construct": "whole, on cells; also called Band3/GPA; AE1", "T2 sequence 1": "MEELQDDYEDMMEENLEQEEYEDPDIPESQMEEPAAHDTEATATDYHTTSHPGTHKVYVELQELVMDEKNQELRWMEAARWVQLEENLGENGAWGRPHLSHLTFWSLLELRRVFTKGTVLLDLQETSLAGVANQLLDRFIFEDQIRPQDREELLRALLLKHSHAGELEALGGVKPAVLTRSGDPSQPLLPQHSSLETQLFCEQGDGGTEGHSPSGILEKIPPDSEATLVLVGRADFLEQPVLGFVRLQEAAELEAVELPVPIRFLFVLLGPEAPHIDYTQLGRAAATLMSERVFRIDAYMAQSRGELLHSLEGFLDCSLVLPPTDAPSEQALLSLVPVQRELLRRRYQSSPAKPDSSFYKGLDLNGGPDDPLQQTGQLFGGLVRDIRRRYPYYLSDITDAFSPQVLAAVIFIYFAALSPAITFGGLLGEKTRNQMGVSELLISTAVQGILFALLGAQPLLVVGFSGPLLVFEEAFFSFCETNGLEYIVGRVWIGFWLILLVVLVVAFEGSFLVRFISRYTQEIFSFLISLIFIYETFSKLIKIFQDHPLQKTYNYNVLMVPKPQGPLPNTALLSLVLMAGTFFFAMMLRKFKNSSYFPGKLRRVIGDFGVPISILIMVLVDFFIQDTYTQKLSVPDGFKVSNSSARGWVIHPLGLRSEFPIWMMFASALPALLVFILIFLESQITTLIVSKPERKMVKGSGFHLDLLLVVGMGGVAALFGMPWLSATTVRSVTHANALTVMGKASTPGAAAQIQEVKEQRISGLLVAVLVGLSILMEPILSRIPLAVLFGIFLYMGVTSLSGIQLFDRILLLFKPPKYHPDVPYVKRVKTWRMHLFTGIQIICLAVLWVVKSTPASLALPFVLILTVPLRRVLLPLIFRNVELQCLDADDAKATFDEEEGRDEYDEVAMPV", "T2 sequence 2": "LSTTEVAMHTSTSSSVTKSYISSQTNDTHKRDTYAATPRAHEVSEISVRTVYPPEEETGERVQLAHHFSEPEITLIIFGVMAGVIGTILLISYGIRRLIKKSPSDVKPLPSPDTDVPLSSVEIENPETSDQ", "test": "dissociation of 125I-labelled protein from saturated human RBCs", "protocol": "as §1"}, "[4]": {"molecular_target": "T2, Band 3 / glycophorin A (Wright b, Wrb …)", "test": "direct binding of 125I-labelled protein to human RBCs, 4 h at 37 C", "protocol": "as §1"}, "[5]": {"molecular_target": "T1, human RhCE protein (RHCE; Rh17/Hr0 …)", "test": "Western blot of reduced, denatured proteins from human erythrocyte ghosts", "protocol": "(§2) A Western blot was performed to assess the binding of KP3-17 (anti-Rh17) to proteins extracted from mouse and human erythrocyte ghosts. Because proteins were denatured in reducing SDS-PAGE buffer prior to gel electrophoresis, the presence of binding is due to interaction with linear, and not conformational, epitopes. This is in contrast to anti-RhCE mAbs described by other groups, which recognize conformational epitopes.\nas §2, with “Rh17” for “KP3-17 (anti-Rh17)”, “ghosts (FIG. 25).” for “ghosts.”"}, "[6]": {"molecular_target": "B1", "test": "peptide competition, flow cytometry on human erythrocytes; RhD loop peptide as negative control", "source_text": "Flow cytometry was used to assess the binding of anti-Rh17 to human erythrocytes in the presence and absence of linear peptides corresponding to the amino acid sequence 6th extracellular loop of human RhD (negative control) and human RhCE. […] (* denotes p<0.05 by 1-way ANOVA with Tukey's post-hoc test).\nRh17 recognizes an epitope present in the 6th extracellular loop of human RhCE. Flow cytometry was used to assess the binding of Rh17 to human erythrocytes in the presence and absence of linear peptides corresponding to the amino acid sequence 6th extracellular loop of human RhD (negative control) and human RhCE (FIG. 26)."}},
  "data": [
    {"binder": "aRh17 scFv (anti-RhCE), clone KP3-17 (scFv, radio-iodinated (125I) or amine-labelled with AlexaFluor 488/647 in the binding assays; sites not stated, scFv produced as H2N-VH-(GGGGS)3-VL-FLAGx3-COOH in E. coli periplasm (pBAD/gIII); Macaque-derived; also called anti-Rh17 scFv; aRHCE scFv; not shown: C-terminal FLAGx3 tag) scFv: EVQLLESGPGLLKPSETLSLTCAVSGAPISNYWWSWIRQSPGKGLEWIGEIDGSIYTTYYNPSLKSRVAISKDTSKNRLSLKLTSVTAADTAVYYCAREGQNPLVPTYGSTGFGLDFWGHGLAVTVSSGGGGSGGGGSGGGGSAAELTQSPSSLSASVGDRVTITCQASQGISSWLAWYQQKPGKAPKLLIYKASSLQSGVPSRFSGSGSGTDFTLTISSLQSEDFATYYCQQYSSSPRTFGQGTKVEIK", "values": [
      {"measurement": "koff", "setting": "[1]", "value": "2e-05", "unit": "s⁻¹"},
      {"measurement": "Kd", "setting": "[2]", "value": 41.4, "unit": "nM"}
    ]},
    {"binder": "aWrb scFv (anti-Band3/GPA), clone KP2-23 (scFv, radio-iodinated (125I) or amine-labelled with AlexaFluor 488/647 in the binding assays; sites not stated, scFv produced as H2N-VH-(GGGGS)3-VL-FLAGx3-COOH in E. coli periplasm; also called anti-Wrb scFv; KP2-23 scFv; not shown: C-terminal FLAGx3 tag) scFv: EVQLLESGPGLVKPSETLSLTCTVSGSSLSSAYGWNWIRQPPGKGLEWIGSIGGSRDNTNYNPSLKRRVTISKDTSKNQFSLKLKSVTAADTAVYYCAQRGAYGYSYFDYWGQGVLVAVSSGGGGSGGGGSGGGGSAAELTLTQSPATLSLSPGETATLSCRASQTVGRNLAWYQQRPGQAPNLLVHSAYFRATGIPDRFSGSGSGTDFTLTISSLEPEDAGVYHCQQYNDLLPLTFGGGTKVEIK", "values": [
      {"measurement": "koff", "setting": "[3]", "value": "2.9e-05", "unit": "s⁻¹"},
      {"measurement": "Kd", "setting": "[4]", "value": 21.3, "unit": "nM"}
    ]},
    {"binder": "B1", "values": [
      {"measurement": "binding result", "setting": "[5]", "value": "binds"}
    ]},
    {"binder": "LLVLDTVGAGNGMIG (peptide, UniProt Q02161 346-360, looked up, domain: 6th extracellular loop; Negative control peptide; also called RhD peptide (negative control))", "note": "[linear peptide corresponding to the 6th extracellular loop of human RhD]", "values": [
      {"measurement": "binding result", "setting": "[6]", "value": "no binding"}
    ]}
  ]
}
